Test results published in patent US20180071366A1.
Numbered stars: 1 amine (or outer) side, 2 acyl side, 3 side chain; on linkers, the order of the positions; unused ones are H or OH. Bridge positions count the residues as written; N and C are the ends. Square brackets hold non-standard residues; d marks the D form. * marks the point of attachment. C20 diacid = O=C(O)CCCCCCCCCCCCCCCCCCC(=O)*; γGlu = O=C(O)[C@H](CCC(=O)[*:2])N[*:1]; Hyp = O=C(O)[C@@H]1C[C@@H](O)CN1; NMeI = CC[C@H](C)[C@H](NC)C(=O)O; Aad = N[C@@H](CCCC(=O)O)C(=O)O; hLys = NCCCCC[C@H](N)C(=O)O; Orn = NCCC[C@H](N)C(=O)O; Sar = CNCC(=O)O

Key:
[1] = molecular target: recombinant human calcitonin receptor (hCT-R) (human), P30988; assay: cell-based or functional assay
Chain of recombinant human calcitonin receptor (hCT-R) (human), P30988 (P30988 25-474): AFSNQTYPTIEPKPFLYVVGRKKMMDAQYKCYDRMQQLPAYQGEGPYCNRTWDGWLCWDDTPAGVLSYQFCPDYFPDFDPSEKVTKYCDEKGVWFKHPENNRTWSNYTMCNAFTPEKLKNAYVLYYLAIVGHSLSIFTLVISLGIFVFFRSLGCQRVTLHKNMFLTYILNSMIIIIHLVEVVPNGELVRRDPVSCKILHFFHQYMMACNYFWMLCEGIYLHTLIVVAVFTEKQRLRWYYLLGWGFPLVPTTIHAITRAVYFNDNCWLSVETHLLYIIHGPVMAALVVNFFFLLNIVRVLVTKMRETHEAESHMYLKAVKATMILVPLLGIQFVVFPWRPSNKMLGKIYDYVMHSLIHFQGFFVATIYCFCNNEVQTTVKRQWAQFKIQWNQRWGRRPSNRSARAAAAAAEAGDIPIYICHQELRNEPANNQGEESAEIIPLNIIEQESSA

[2] = molecular target: recombinant human amylin 3 receptor (hAMYR3) (human), P30988; assay: cell-based or functional assay
Chain of recombinant human amylin 3 receptor (hAMYR3) (human), P30988 (P30988 25-474, chain 1 of 2): as the sequence (P30988 25-474) above
Chain of recombinant human amylin 3 receptor (hAMYR3) (human), P30988 (O60896 24-148, chain 2 of 2, further chain): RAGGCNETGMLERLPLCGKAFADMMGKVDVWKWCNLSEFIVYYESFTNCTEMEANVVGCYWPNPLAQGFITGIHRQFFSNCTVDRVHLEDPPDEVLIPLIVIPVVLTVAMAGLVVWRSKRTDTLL

Binder	hCT-R EC50 [nM] (cAMP formation, 1321N1 cells expressing hCT-R) [1]	hAMYR3 EC50 [nM] (cAMP formation, 1321N1 cells expressing hAMYR3) [2]
{C20 diacid-γGlu}-RDGTATKATERLAHFLQRSSF[Sar]A[NMeI]LSSTEVGSNT[Hyp]-NH2 (lactam 2-7; SMILES CC[C@H](C)[C@@H](C(=O)N[C@@H](CC(C)C)C(=O)N[C@@H](CO)C(=O)N[C@@H](CO)C(=O)N[C@H](C(=O)N[C@@H](CCC(=O)O)C(=O)N[C@H](C(=O)NCC(=O)N[C@@H](CO)C(=O)N[C@@H](CC(N)=O)C(=O)N[C@H](C(=O)N1C[C@H](O)C[C@H]1C(N)=O)[C@@H](C)O)C(C)C)[C@@H](C)O)N(C)C(=O)[C@H](C)NC(=O)CN(C)C(=O)[C@H](Cc1ccccc1)NC(=O)[C@H](CO)NC(=O)[C@H](CO)NC(=O)[C@H](CCCNC(=N)N)NC(=O)[C@H](CCC(N)=O)NC(=O)[C@H](CC(C)C)NC(=O)[C@H](Cc1ccccc1)NC(=O)[C@H](Cc1c[nH]cn1)NC(=O)[C@H](C)NC(=O)[C@H](CC(C)C)NC(=O)[C@H](CCCNC(=N)N)NC(=O)[C@H](CCC(=O)O)NC(=O)[C@@H](NC(=O)[C@H](C)NC(=O)[C@@H]1CCCCNC(=O)C[C@H](NC(=O)[C@H](CCCNC(=N)N)NC(=O)CC[C@H](NC(=O)CCCCCCCCCCCCCCCCCCC(=O)O)C(=O)O)C(=O)NCC(=O)N[C@@H]([C@@H](C)O)C(=O)N[C@@H](C)C(=O)N[C@@H]([C@@H](C)O)C(=O)N1)[C@@H](C)O) [Compound 18]	0.085	0.031
{C20 diacid-γGlu}-RDGTAT[Orn]ATERLA[Aad]FLQRSSF[Sar]A[NMeI]LSSTEVGSNT[Hyp]-NH2 (lactam 2-7; SMILES CC[C@H](C)[C@@H](C(=O)N[C@@H](CC(C)C)C(=O)N[C@@H](CO)C(=O)N[C@@H](CO)C(=O)N[C@H](C(=O)N[C@@H](CCC(=O)O)C(=O)N[C@H](C(=O)NCC(=O)N[C@@H](CO)C(=O)N[C@@H](CC(N)=O)C(=O)N[C@H](C(=O)N1C[C@H](O)C[C@H]1C(N)=O)[C@@H](C)O)C(C)C)[C@@H](C)O)N(C)C(=O)[C@H](C)NC(=O)CN(C)C(=O)[C@H](Cc1ccccc1)NC(=O)[C@H](CO)NC(=O)[C@H](CO)NC(=O)[C@H](CCCNC(=N)N)NC(=O)[C@H](CCC(N)=O)NC(=O)[C@H](CC(C)C)NC(=O)[C@H](Cc1ccccc1)NC(=O)[C@H](CCCC(=O)O)NC(=O)[C@H](C)NC(=O)[C@H](CC(C)C)NC(=O)[C@H](CCCNC(=N)N)NC(=O)[C@H](CCC(=O)O)NC(=O)[C@@H](NC(=O)[C@H](C)NC(=O)[C@@H]1CCCNC(=O)C[C@H](NC(=O)[C@H](CCCNC(=N)N)NC(=O)CC[C@H](NC(=O)CCCCCCCCCCCCCCCCCCC(=O)O)C(=O)O)C(=O)NCC(=O)N[C@@H]([C@@H](C)O)C(=O)N[C@@H](C)C(=O)N[C@@H]([C@@H](C)O)C(=O)N1)[C@@H](C)O) [Compound 20]	0.009	0.003
{C20 diacid-γGlu}-RDGTATKATQRLAHFLQRSSF[Sar]A[NMeI]LSSTEVGSNT[Hyp]-NH2 (lactam 2-7; SMILES CC[C@H](C)[C@@H](C(=O)N[C@@H](CC(C)C)C(=O)N[C@@H](CO)C(=O)N[C@@H](CO)C(=O)N[C@H](C(=O)N[C@@H](CCC(=O)O)C(=O)N[C@H](C(=O)NCC(=O)N[C@@H](CO)C(=O)N[C@@H](CC(N)=O)C(=O)N[C@H](C(=O)N1C[C@H](O)C[C@H]1C(N)=O)[C@@H](C)O)C(C)C)[C@@H](C)O)N(C)C(=O)[C@H](C)NC(=O)CN(C)C(=O)[C@H](Cc1ccccc1)NC(=O)[C@H](CO)NC(=O)[C@H](CO)NC(=O)[C@H](CCCNC(=N)N)NC(=O)[C@H](CCC(N)=O)NC(=O)[C@H](CC(C)C)NC(=O)[C@H](Cc1ccccc1)NC(=O)[C@H](Cc1c[nH]cn1)NC(=O)[C@H](C)NC(=O)[C@H](CC(C)C)NC(=O)[C@H](CCCNC(=N)N)NC(=O)[C@H](CCC(N)=O)NC(=O)[C@@H](NC(=O)[C@H](C)NC(=O)[C@@H]1CCCCNC(=O)C[C@H](NC(=O)[C@H](CCCNC(=N)N)NC(=O)CC[C@H](NC(=O)CCCCCCCCCCCCCCCCCCC(=O)O)C(=O)O)C(=O)NCC(=O)N[C@@H]([C@@H](C)O)C(=O)N[C@@H](C)C(=O)N[C@@H]([C@@H](C)O)C(=O)N1)[C@@H](C)O) [Compound 16]	0.043	0.035
{C20 diacid-γGlu}-RDGTATKATERLAHFLQRSSF[Sar]A[NMeI]PSSTEVGSNT[Hyp]-NH2 (lactam 2-7; SMILES CC[C@H](C)[C@@H](C(=O)N1CCC[C@H]1C(=O)N[C@@H](CO)C(=O)N[C@@H](CO)C(=O)N[C@H](C(=O)N[C@@H](CCC(=O)O)C(=O)N[C@H](C(=O)NCC(=O)N[C@@H](CO)C(=O)N[C@@H](CC(N)=O)C(=O)N[C@H](C(=O)N1C[C@H](O)C[C@H]1C(N)=O)[C@@H](C)O)C(C)C)[C@@H](C)O)N(C)C(=O)[C@H](C)NC(=O)CN(C)C(=O)[C@H](Cc1ccccc1)NC(=O)[C@H](CO)NC(=O)[C@H](CO)NC(=O)[C@H](CCCNC(=N)N)NC(=O)[C@H](CCC(N)=O)NC(=O)[C@H](CC(C)C)NC(=O)[C@H](Cc1ccccc1)NC(=O)[C@H](Cc1c[nH]cn1)NC(=O)[C@H](C)NC(=O)[C@H](CC(C)C)NC(=O)[C@H](CCCNC(=N)N)NC(=O)[C@H](CCC(=O)O)NC(=O)[C@@H](NC(=O)[C@H](C)NC(=O)[C@@H]1CCCCNC(=O)C[C@H](NC(=O)[C@H](CCCNC(=N)N)NC(=O)CC[C@H](NC(=O)CCCCCCCCCCCCCCCCCCC(=O)O)C(=O)O)C(=O)NCC(=O)N[C@@H]([C@@H](C)O)C(=O)N[C@@H](C)C(=O)N[C@@H]([C@@H](C)O)C(=O)N1)[C@@H](C)O) [Compound 17]	0.058	0.025
{C20 diacid-γGlu}-RDGTAT[Orn]ATERLA[Aad]FLTRSSF[Sar]A[NMeI]LSSTEVGSST[Hyp]-NH2 (lactam 2-7; SMILES CC[C@H](C)[C@@H](C(=O)N[C@@H](CC(C)C)C(=O)N[C@@H](CO)C(=O)N[C@@H](CO)C(=O)N[C@H](C(=O)N[C@@H](CCC(=O)O)C(=O)N[C@H](C(=O)NCC(=O)N[C@@H](CO)C(=O)N[C@@H](CO)C(=O)N[C@H](C(=O)N1C[C@H](O)C[C@H]1C(N)=O)[C@@H](C)O)C(C)C)[C@@H](C)O)N(C)C(=O)[C@H](C)NC(=O)CN(C)C(=O)[C@H](Cc1ccccc1)NC(=O)[C@H](CO)NC(=O)[C@H](CO)NC(=O)[C@H](CCCNC(=N)N)NC(=O)[C@@H](NC(=O)[C@H](CC(C)C)NC(=O)[C@H](Cc1ccccc1)NC(=O)[C@H](CCCC(=O)O)NC(=O)[C@H](C)NC(=O)[C@H](CC(C)C)NC(=O)[C@H](CCCNC(=N)N)NC(=O)[C@H](CCC(=O)O)NC(=O)[C@@H](NC(=O)[C@H](C)NC(=O)[C@@H]1CCCNC(=O)C[C@H](NC(=O)[C@H](CCCNC(=N)N)NC(=O)CC[C@H](NC(=O)CCCCCCCCCCCCCCCCCCC(=O)O)C(=O)O)C(=O)NCC(=O)N[C@@H]([C@@H](C)O)C(=O)N[C@@H](C)C(=O)N[C@@H]([C@@H](C)O)C(=O)N1)[C@@H](C)O)[C@@H](C)O) [Compound 22]	0.474	0.051
{C20 diacid-γGlu}-RDGTAT[Orn]ATERLA[Aad]FLQRSSF[Sar]A[NMeI]PSSTEVGSNT[Hyp]-NH2 (lactam 2-7; SMILES CC[C@H](C)[C@@H](C(=O)N1CCC[C@H]1C(=O)N[C@@H](CO)C(=O)N[C@@H](CO)C(=O)N[C@H](C(=O)N[C@@H](CCC(=O)O)C(=O)N[C@H](C(=O)NCC(=O)N[C@@H](CO)C(=O)N[C@@H](CC(N)=O)C(=O)N[C@H](C(=O)N1C[C@H](O)C[C@H]1C(N)=O)[C@@H](C)O)C(C)C)[C@@H](C)O)N(C)C(=O)[C@H](C)NC(=O)CN(C)C(=O)[C@H](Cc1ccccc1)NC(=O)[C@H](CO)NC(=O)[C@H](CO)NC(=O)[C@H](CCCNC(=N)N)NC(=O)[C@H](CCC(N)=O)NC(=O)[C@H](CC(C)C)NC(=O)[C@H](Cc1ccccc1)NC(=O)[C@H](CCCC(=O)O)NC(=O)[C@H](C)NC(=O)[C@H](CC(C)C)NC(=O)[C@H](CCCNC(=N)N)NC(=O)[C@H](CCC(=O)O)NC(=O)[C@@H](NC(=O)[C@H](C)NC(=O)[C@@H]1CCCNC(=O)C[C@H](NC(=O)[C@H](CCCNC(=N)N)NC(=O)CC[C@H](NC(=O)CCCCCCCCCCCCCCCCCCC(=O)O)C(=O)O)C(=O)NCC(=O)N[C@@H]([C@@H](C)O)C(=O)N[C@@H](C)C(=O)N[C@@H]([C@@H](C)O)C(=O)N1)[C@@H](C)O) [Compound 21]	0.037	0.01
{C20 diacid-γGlu}-RDGTAT[hLys]ATERLAHFLQRSSF[Sar]A[NMeI]LSSTEVGSNT[Hyp]-NH2 (lactam 2-7; SMILES CC[C@H](C)[C@@H](C(=O)N[C@@H](CC(C)C)C(=O)N[C@@H](CO)C(=O)N[C@@H](CO)C(=O)N[C@H](C(=O)N[C@@H](CCC(=O)O)C(=O)N[C@H](C(=O)NCC(=O)N[C@@H](CO)C(=O)N[C@@H](CC(N)=O)C(=O)N[C@H](C(=O)N1C[C@H](O)C[C@H]1C(N)=O)[C@@H](C)O)C(C)C)[C@@H](C)O)N(C)C(=O)[C@H](C)NC(=O)CN(C)C(=O)[C@H](Cc1ccccc1)NC(=O)[C@H](CO)NC(=O)[C@H](CO)NC(=O)[C@H](CCCNC(=N)N)NC(=O)[C@H](CCC(N)=O)NC(=O)[C@H](CC(C)C)NC(=O)[C@H](Cc1ccccc1)NC(=O)[C@H](Cc1c[nH]cn1)NC(=O)[C@H](C)NC(=O)[C@H](CC(C)C)NC(=O)[C@H](CCCNC(=N)N)NC(=O)[C@H](CCC(=O)O)NC(=O)[C@@H](NC(=O)[C@H](C)NC(=O)[C@@H]1CCCCCNC(=O)C[C@H](NC(=O)[C@H](CCCNC(=N)N)NC(=O)CC[C@H](NC(=O)CCCCCCCCCCCCCCCCCCC(=O)O)C(=O)O)C(=O)NCC(=O)N[C@@H]([C@@H](C)O)C(=O)N[C@@H](C)C(=O)N[C@@H]([C@@H](C)O)C(=O)N1)[C@@H](C)O) [Compound 19]	0.028	0.006
